The values that follow come from patent US20220242939A1 (BIOARCTIC, published 2022).

For assay [1], the target named is T1, G200 N-terminal neo-epitope peptide GQPLQE-Acp-C (SEQ ID NO:50) conjugated to BSA (human, not fully specified (residue 8); printed as GQPLQE-Acp-C; also: C-terminal Cys conjugated to BSA carrier).
T1 construct: also called G200-BSA peptide; G200-peptide
T1 peptide: GQPLQE[Ahx]C
Nature of the assay: direct ELISA, target coated at 1 ug/ml, supernatant in 3-fold dilutions from 1000 ng/ml, OD 450 nm. As to the method:
(§1) Selectivity evaluation by direct ELISA: The direct ELISA described below was used to evaluate the binding selectivity of generated monoclonal anti-ApoE antibodies with affinity for the N-terminal neo-epitope of C-terminal ApoE fragments starting at amino acid G200.
(§2) The screening was performed according to standard ELISA protocols. Briefly, 1 μg/ml solutions of N-terminal neo-epitope peptide (SEQ ID NO:50) conjugated to BSA, the recombinant C-terminal ApoE fragment G200-HIS (SEQ ID NO:48) and recombinant full-length ApoE4 (SEQ ID NO:45; Abcam; cat. no. ab50243) were prepared by dilution in PBS. 50 μl/well were added to an ELISA half-area 96 well microtiter plate. Then, the plate was sealed with adhesive sealer and incubated over night at 4° C. The plates were blocked with 150 μl/well of protein-free blocking solution (Pierce) for 1 h at room temperature with shake (600-900 rpm). The plates were washed four times with washing buffer containing 0.28 mM NaH₂PO₄, 2.5 mM Na₂HPO₄, 150 mM NaCl, 0.1% TWEEN®-20 and 0.0075% Kathon CG. Antibodies of interest were serially diluted 3-fold with a starting dilution at 1 μg/ml (mixed 1:1 with dilution buffer: PBS with 0.1% BSA and 0.05% TWEEN®-20) and incubated for 2 h at room temperature. The plates were washed four times as before. […] After another wash (as above), 50 μl/well of K-Blue® aqueous substrate (Neogen) were added, and the reaction was stopped after 5-15 min with 50 μl/well of 0.5 M […]. The optical density at 450 nm was read using an ELISA reader (Tecan). The optical density was plotted against the antibody concentration to generate concentration-response curves (FIG. 14).
For orientation: An ELISA detects its analyte on a solid surface through an enzyme-linked reagent.

Assay [2] has as its target T2, recombinant C-terminal ApoE fragment G200-HIS (ApoE-G200-H299-10xHIS) (human, UniProt P02649 218-317).
T2 construct: also called G200-HIS fragment
The description is as above. As to the method:
as §1, §2

Assay [3] concerns the target T3, recombinant full-length ApoE4 (aa 1-299; SEQ ID NO:45; Abcam cat. no. ab50243) (human, UniProt P02649 19-317).
T3 construct: Bought protein; also called recombinant ApoE4 full-length protein
Described as above. As to the method:
as §1, §2

In assay [4] the target is T4, full-length ApoE in human brain extract from Alzheimer's disease patients (human, UniProt P02649 19-317).
T4 construct: mature; Endogenous protein on Western blot or in solution (IP); also called ApoE full-length protein
The experiment in a line: Western blot, human AD brain extract, hybridoma supernatant (data not shown for 21C3). The text has this: Selectivity evaluation and human target binding in Alzheimer's disease brain extracts by Western blot analysis: The Western blot analysis described below was used to evaluate selective binding of monoclonal antibodies with affinity for the N-terminal neo-epitope of ApoE fragments […], starting at G200, without binding to ApoE full-length protein, in human brain extracts from an Alzheimer's disease patient. Fresh frozen brain tissue from the Alzheimer's disease patient was homogenized in RIPA 2% SDS extraction buffer, followed by centrifugation at 16000×g for 1 h. The subsequent supernatant was subjected to standard protein concentration determination.
RIPA 2% SDS brain extract containing 80 μg total protein was mixed with 2×Laemmli sample buffer, boiled for 5 min at 95° C. and loaded onto SDS-PAGE gels (Bolt™ 12% Bis-Tris Plus 10 well, Thermo Fisher, cat. no. NW00120BOX). Gels were run for 30-40 min at 180 V, after which proteins were transferred from the gels to nitrocellulose membranes using the Trans-Blot® Turbo™ system (Bio-Rad). Membranes were blocked in Odyssey® blocking buffer for 1 h and incubated over night at room temperature with hybridoma supernatant diluted 1:1 in Odyssey® blocking buffer with 0.1% TWEEN®-20. […]
In general terms: Immunoblotting shows a protein as a band on a membrane.

Non-standard residues stand in square brackets, D forms with d. No end group written: not given here. Ahx = NCCCCCC(=O)O

T4 sequence (P02649 19-317): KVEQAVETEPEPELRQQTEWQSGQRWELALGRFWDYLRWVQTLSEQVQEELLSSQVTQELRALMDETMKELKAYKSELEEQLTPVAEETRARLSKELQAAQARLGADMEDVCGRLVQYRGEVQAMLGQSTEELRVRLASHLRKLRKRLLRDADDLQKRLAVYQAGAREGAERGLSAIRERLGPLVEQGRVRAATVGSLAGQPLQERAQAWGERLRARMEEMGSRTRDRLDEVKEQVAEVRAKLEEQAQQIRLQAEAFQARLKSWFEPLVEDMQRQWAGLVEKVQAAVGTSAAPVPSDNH
T3 sequence (P02649 19-317 C130R limits assumed): as the sequence (P02649 19-317) above, with C112R counted along it
T2 sequence (P02649 other isoform, or with tags, fused parts or gaps limits assumed): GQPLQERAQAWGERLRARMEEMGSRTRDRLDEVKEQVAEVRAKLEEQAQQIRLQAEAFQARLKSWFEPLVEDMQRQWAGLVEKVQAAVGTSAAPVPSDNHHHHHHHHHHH

B1: 21C3, hybridoma monoclonal antibody (unpurified supernatant) (antibody, V domains shown)
VH: EVQLVESGGDLVKPGGSLKLSCAASGFTFSSYAMSWVRQSPEKRLEWVAEISGSGSRDHYTDSVTGRFTVSRDNAKNTLYLEMSSLRSEDTAIYYCARQLTGTDYYGTDYWGQGTSVTVSS
VL: DVLMTQIPLSLPVSLGDQASISCRSSQSIVYSNGNTYLEWYLQRPGQSPKLLIYKVSNRFSGVPDRFSGSGSGTDFTLKISRVEAEDLGVYYCFQGSHLPYTFGGGTKLEIK
notes: same VH and VL as 4E6; not made as recombinant antibody
The EC50 (read off the curve) is the concentration giving half of the maximal effect. Regarding B1, the “EC50 (read off the curve)” value in assay [1] and in assay [2] was about 4 ng/mL each time. The binding result in assay [3] is reported as “no binding (tested: 1000 ng/ml)”; in assay [4] it was “no binding”.
